US20060257887A1

Target: GFP 1-10 OPT (Aequorea victoria) [GFP: P42212]
Test: cell-based or functional assay

## HPS-GFP 11 M2 (3-hexulose 6-phosphate synthase fused to GFP S11 M2; L221H, F223S, T225N)
  complementation rate (fold (decrease)): 5
